T1: alanine, serine, cysteine-preferring transporter 2 (ASCT2) (mouse, UniProt P51912 1-553)
T1 construct: Endogenous protein in lysate; also called Glutamine transporter ASCT2; ACST2
T1 sequence (looked up): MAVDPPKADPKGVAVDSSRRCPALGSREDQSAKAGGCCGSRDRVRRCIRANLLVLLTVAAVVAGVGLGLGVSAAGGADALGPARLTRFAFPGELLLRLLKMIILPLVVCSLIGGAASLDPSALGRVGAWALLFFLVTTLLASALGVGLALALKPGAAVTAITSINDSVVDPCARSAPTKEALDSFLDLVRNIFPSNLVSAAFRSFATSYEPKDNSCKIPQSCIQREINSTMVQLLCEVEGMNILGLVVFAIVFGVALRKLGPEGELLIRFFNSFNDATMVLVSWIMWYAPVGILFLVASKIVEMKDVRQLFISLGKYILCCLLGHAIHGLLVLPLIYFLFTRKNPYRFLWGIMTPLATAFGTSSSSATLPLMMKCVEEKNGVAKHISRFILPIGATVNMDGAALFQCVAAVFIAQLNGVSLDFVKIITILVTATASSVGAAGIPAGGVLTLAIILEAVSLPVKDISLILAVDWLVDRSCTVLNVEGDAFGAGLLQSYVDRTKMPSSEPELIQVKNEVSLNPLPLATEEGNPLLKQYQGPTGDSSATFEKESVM

T2: Hexokinase 1 (HK1) (mouse, UniProt P17710-3 1-918, limits assumed)
T2 construct: Endogenous protein in lysate
T2 sequence (looked up): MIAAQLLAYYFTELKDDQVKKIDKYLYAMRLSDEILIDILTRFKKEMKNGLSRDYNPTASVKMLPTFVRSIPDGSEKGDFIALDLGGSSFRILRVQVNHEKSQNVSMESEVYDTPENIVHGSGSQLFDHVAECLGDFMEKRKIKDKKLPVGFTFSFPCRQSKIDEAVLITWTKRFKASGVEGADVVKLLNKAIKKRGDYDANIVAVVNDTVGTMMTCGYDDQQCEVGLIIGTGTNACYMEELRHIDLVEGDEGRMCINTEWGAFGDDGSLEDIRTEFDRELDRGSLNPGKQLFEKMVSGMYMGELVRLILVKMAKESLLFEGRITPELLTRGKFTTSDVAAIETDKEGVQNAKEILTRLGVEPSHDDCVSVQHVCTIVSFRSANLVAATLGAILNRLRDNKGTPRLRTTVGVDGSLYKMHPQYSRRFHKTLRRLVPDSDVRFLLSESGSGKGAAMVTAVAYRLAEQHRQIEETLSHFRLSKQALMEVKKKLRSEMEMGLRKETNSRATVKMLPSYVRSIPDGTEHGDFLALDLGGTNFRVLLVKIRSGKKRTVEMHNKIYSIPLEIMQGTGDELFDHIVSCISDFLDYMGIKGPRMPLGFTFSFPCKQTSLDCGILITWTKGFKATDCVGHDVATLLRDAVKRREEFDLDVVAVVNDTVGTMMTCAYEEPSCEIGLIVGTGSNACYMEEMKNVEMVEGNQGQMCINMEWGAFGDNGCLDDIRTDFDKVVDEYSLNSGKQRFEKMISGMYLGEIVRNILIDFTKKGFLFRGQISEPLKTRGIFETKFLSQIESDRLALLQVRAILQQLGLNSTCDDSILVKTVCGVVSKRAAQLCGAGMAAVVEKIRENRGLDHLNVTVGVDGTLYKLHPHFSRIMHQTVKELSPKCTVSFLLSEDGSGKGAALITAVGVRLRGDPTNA

T3: aconitase 2 (ACO2) (mouse, UniProt Q99KI0 28-780)
T3 sequence (looked up): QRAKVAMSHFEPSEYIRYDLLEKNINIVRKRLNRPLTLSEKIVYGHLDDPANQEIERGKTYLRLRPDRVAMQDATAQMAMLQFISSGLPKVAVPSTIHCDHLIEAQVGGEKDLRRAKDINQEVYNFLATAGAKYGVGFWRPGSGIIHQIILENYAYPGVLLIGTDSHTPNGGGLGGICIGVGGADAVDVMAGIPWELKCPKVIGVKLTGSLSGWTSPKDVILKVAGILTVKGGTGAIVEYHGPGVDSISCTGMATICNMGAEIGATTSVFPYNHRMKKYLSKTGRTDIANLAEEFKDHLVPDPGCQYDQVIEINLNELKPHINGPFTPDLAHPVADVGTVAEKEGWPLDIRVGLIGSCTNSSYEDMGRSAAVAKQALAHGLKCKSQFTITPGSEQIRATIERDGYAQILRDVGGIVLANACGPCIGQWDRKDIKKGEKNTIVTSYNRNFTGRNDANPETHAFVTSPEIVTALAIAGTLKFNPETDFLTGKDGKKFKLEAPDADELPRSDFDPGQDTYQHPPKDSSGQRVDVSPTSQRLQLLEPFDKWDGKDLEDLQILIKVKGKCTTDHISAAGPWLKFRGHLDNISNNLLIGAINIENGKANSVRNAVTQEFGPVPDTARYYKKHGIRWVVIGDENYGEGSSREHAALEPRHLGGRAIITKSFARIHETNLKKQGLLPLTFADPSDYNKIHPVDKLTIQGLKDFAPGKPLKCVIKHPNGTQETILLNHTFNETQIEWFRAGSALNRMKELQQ

T4: oxoglutarate dehydrogenase (OGDH) (mouse, UniProt Q60597 41-1023, limits assumed)
T4 construct: Endogenous protein in lysate
T4 sequence (looked up): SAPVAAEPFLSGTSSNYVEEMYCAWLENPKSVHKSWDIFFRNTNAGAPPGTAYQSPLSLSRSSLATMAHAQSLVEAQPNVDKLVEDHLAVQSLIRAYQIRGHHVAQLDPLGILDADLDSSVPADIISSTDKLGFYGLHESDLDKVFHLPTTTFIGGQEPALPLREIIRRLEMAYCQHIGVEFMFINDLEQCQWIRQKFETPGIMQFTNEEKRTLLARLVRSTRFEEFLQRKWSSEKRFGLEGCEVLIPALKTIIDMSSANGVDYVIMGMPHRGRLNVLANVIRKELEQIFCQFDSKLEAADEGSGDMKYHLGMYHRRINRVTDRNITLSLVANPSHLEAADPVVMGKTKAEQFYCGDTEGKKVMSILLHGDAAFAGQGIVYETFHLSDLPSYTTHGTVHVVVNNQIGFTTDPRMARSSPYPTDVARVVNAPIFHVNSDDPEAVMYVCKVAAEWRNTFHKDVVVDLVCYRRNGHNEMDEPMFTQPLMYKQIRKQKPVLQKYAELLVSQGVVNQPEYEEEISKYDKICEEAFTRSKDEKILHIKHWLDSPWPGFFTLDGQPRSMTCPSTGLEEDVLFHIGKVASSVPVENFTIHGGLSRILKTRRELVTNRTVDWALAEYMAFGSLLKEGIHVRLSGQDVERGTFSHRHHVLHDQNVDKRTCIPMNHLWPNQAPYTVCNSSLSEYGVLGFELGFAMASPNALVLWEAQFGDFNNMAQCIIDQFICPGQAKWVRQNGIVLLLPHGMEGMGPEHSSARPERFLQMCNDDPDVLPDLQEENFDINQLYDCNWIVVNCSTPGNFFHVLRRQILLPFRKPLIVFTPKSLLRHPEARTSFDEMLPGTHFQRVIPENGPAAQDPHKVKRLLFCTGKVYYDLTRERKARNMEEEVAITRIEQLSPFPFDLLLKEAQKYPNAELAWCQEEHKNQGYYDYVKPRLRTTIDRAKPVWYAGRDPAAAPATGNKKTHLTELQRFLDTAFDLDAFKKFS

T5: phosphofructokinase P (PFKP) (mouse, UniProt Q9WUA3 1-784)
T5 sequence (looked up): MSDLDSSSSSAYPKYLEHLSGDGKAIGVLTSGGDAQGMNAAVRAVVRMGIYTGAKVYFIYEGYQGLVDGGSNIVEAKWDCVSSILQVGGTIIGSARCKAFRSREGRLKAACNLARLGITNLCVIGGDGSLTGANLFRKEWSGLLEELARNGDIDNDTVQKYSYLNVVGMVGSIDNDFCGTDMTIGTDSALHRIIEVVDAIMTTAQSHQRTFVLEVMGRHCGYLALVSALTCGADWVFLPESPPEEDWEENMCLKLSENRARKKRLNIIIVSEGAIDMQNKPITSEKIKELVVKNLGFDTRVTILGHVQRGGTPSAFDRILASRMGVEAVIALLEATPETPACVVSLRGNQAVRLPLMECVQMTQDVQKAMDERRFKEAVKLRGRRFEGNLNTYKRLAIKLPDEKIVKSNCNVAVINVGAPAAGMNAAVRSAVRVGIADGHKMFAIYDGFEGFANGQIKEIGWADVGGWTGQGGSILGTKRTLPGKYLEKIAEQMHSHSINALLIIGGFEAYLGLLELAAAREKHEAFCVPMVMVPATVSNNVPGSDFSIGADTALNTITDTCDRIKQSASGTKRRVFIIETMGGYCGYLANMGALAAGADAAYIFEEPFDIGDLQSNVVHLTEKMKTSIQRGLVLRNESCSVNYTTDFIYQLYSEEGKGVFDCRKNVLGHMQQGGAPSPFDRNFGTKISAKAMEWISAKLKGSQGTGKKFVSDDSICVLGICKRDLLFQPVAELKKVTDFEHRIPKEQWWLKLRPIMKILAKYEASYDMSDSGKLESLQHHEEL

T6: phosphoglycerate kinase 1 (PGK1) (mouse, UniProt P09411 2-417)
T6 sequence (looked up): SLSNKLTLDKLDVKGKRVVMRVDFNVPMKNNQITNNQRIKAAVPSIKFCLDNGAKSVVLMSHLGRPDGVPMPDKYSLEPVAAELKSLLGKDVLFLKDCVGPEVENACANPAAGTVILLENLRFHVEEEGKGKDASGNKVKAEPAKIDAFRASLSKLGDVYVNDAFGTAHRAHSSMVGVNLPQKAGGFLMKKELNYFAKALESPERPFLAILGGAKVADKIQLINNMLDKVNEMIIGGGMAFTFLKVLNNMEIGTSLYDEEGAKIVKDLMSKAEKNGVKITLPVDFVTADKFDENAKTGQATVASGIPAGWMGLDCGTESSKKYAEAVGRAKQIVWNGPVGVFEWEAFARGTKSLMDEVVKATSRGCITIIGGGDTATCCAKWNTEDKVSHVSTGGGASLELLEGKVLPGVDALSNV

B1: Sirt2 (enzyme, mouse, UniProt Q8VDQ8 2-389, looked up)
chain: AEPDPSDPLETQAGKVQEAQDSDSDTEGGATGGEAEMDFLRNLFTQTLGLGSQKERLLDELTLEGVTRYMQSERCRKVICLVGAGISTSAGIPDFRSPSTGLYANLEKYHLPYPEAIFEISYFKKHPEPFFALAKELYPGQFKPTICHYFIRLLKEKGLLLRCYTQNIDTLERVAGLEPQDLVEAHGTFYTSHCVNTSCRKEYTMGWMKEKIFSEATPRCEQCQSVVKPDIVFFGENLPSRFFSCMQSDFSKVDLLIIMGTSLQVQPFASLISKAPLATPRLLINKEKTGQTDPFLGMMMGLGGGMDFDSKKAYRDVAWLGDCDQGCLALADLLGWKKELEDLVRREHANIDAQSGSQAPNPSTTISPGKSPPPAKEAARTKEKEEQQ
notes: Endogenous protein immunoprecipitated from T cell lysates with anti-Sirt2 (Sigma #9441); also called Sirtuin 2
B2: aldolase A (ALDOA) (enzyme, mouse, UniProt P05064 2-364, looked up)
chain: PHPYPALTPEQKKELSDIAHRIVAPGKGILAADESTGSIAKRLQSIGTENTEENRRFYRQLLLTADDRVNPCIGGVILFHETLYQKADDGRPFPQVIKSKGGVVGIKVDKGVVPLAGTNGETTTQGLDGLSERCAQYKKDGADFAKWRCVLKIGEHTPSALAIMENANVLARYASICQQNGIVPIVEPEILPDGDHDLKRCQYVTEKVLAAVYKALSDHHVYLEGTLLKPNMVTPGHACTQKFSNEEIAMATVTALRRTVPPAVTGVTFLSGGQSEEEASINLNAINKCPLLKPWALTFSYGRALQASALKAWGGKKENLKAAQEEYIKRALANSLACQGKYTPSGQSGAAASESLFISNHAY
notes: also called Aldolase 1
B3: succinate-CoA ligase alpha subunit (SUCLG1) (enzyme)
chain: not shown
notes: also called succinyl-CoA ligase alpha subunit; Succinyl-CoA Ligase

How the values were obtained:
[1] = target: succinate dehydrogenase subunit alpha (SDHA) (mouse, UniProt Q8K2B3 43-664); test: IP of Sirt2, LC-MS/MS, activated WT mouse CD3+ T cell extracts
succinate dehydrogenase subunit alpha (SDHA), sequence (Q8K2B3 43-664 limits assumed): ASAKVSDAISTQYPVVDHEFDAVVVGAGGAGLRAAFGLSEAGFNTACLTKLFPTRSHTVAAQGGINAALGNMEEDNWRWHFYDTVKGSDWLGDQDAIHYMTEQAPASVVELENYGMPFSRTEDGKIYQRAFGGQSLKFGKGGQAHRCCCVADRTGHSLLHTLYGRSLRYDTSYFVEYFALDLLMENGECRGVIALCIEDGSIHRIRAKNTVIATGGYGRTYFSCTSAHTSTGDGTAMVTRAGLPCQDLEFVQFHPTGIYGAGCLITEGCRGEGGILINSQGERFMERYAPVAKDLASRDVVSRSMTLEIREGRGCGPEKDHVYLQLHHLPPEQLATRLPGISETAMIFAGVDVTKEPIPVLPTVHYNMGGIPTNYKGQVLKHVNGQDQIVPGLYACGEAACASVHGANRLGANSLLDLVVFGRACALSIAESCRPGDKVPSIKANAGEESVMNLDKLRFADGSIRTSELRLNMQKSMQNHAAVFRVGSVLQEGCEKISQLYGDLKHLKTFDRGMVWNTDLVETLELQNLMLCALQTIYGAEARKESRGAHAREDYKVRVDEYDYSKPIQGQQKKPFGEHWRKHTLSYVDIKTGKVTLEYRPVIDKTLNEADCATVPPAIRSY

[2] = target: T1, alanine, serine, cysteine-preferring …; test: as above
[3] = target: T2, Hexokinase 1 (HK1); test: co-IP with anti-Sirt2, immunoblot, activated WT mouse CD3+ T cell extracts (FIG. 3B)
[4] = target: T3, aconitase 2 (ACO2); test: co-IP/immunoblot and reverse co-IP/immunoblot, activated WT mouse CD3+ T cell extracts
[5] = target: T4, oxoglutarate dehydrogenase (OGDH); test: as above
[6] = target: T5, phosphofructokinase P (PFKP); test: as above
[7] = target: T6, phosphoglycerate kinase 1 (PGK1); test: as above
[8] = target: T7, pyruvate kinase M (PKM) (mouse, UniProt P52480 1-531, limits assumed); test: reverse co-IP with antibody to the enzyme, anti-Sirt2 immunoblot, activated WT mouse CD3+ T cell extracts (FIG. 3C)
T7 construct: also called PKM1/2; pyruvate kinase isozymes M1/M2
T7 sequence (P52480 whole entry): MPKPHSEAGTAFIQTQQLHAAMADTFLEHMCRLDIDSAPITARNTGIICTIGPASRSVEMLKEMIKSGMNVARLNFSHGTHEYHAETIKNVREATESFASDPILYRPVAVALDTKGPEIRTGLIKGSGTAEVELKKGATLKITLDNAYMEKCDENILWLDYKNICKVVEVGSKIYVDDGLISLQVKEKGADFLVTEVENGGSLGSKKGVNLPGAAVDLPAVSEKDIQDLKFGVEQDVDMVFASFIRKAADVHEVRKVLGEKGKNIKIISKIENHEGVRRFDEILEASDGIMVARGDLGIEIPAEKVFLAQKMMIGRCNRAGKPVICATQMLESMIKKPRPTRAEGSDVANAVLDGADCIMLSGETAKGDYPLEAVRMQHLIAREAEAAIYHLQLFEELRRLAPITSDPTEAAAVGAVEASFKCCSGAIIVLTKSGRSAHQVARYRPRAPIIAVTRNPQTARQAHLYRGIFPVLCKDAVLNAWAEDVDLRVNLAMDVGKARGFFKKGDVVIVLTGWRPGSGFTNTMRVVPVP

[9] = target: B1; test: co-IP/immunoblot and reverse co-IP/immunoblot, activated WT mouse CD3+ T cell extracts

Measured: binding result

B1
not listed: [9]
binds: all other assays above

B2
binds: [9]

B3
binds: [9]
